For experiment [1], the target named is anti-CD19 CAR (clone FMC63), second-generation, C-terminal meGFP (human) (UniProt P01732). The experiment in a line: cell-based or functional assay.
For experiment [2] the target is unchanged. Briefly: flow cytometry staining titration, dose-response fit. (In general: A flow cytometer gives signals particle by particle.)
For experiment [3] the target is unchanged. The experiment in a line: flow cytometry specificity staining, matched CAR cells.
Experiment [4] has the same target. The experiment in a line: flow cytometry staining titration, CAR-transduced Jurkat cells.
For experiment [5] the target is unchanged. Briefly: flow cytometry staining titration, αCD19-CAR-transduced Jurkat cells.
For experiment [6] the target is unchanged. The experiment in a line: flow cytometry staining titration, anti-CD19 CAR-transduced Jurkat cells.
Experiment [7] has the same target. Briefly: magnetic selection with APC-labeled multimer and anti-APC magnetic particles, 'Low Clone'.
Experiment [8] has the same target. Briefly: magnetic selection with APC-labeled multimer and anti-APC magnetic particles, 'Mid Clone'.
For experiment [9] the target is unchanged. Briefly: flow cytometry spike-in assay, 'Low Clone' and 'Mid Clone' anti-CD19 CAR-meGFP cells among mCherry non-CAR cells.
For experiment [10] the target is unchanged. Briefly: flow cytometry spike-in assay, 'Mid Clone' at 10%.

A value given as a limit tells only on which side of the number the result lay.

In experiment [1], “CD19 antigen-dodecamer (from UniProt P22629 37-163)” registered a CAR-T cells as percent of total cell population (49% without multimer) of 70%, a CD69+CD25+ cells in CD4+ CAR-T cell sub-population (17% without multimer) of 28%, a CD69+CD25+ cells in CD8+ CAR-T cell sub-population (5% without multimer) of 38% and a PD-1+ CAR-T cells in CD4+ CAR-T cell sub-population (25% without multimer) of 25%. This substance returned a PD-1+ CAR-T cells in CD8+ CAR-T cell sub-population (2% without multimer) in [1] of 6%. This substance returned a fold staining efficiency (1/EC50) against anti FMC63 antibody in experiment [2] of 40 fold. Besides, in [3], the percent of CAR-expressing cells detected is over 90%. Moreover, the percent of target cells detected at the maximum concentration in [4] was over 92%. In addition, in [5], the percent of CD19 CAR-expressing cells detected at saturated concentrations was found to be 90%. Further, the efficiency of detection against antigen-monomer in experiment [6] turned out to be 25 % higher. The same substance came in with a percent of CAR+ cells retained in the column in experiment [7] of 35%. Also, the percent of CAR+ cells retained in the column in experiment [8] is 55%. This substance also had a sensitivity in [9] of over 90%.

As for “CD19 antigen-streptavidin tetramer (from UniProt P22629 37-163)”, in experiment [1], the CAR-T cells as percent of total cell population (49% without multimer) is 61%, the CD69+CD25+ cells in CD4+ CAR-T cell sub-population (17% without multimer) is 26%, the CD69+CD25+ cells in CD8+ CAR-T cell sub-population (5% without multimer) came out at 28% and the PD-1+ CAR-T cells in CD4+ CAR-T cell sub-population (25% without multimer) is 26%. The same substance returned a PD-1+ CAR-T cells in CD8+ CAR-T cell sub-population (2% without multimer) in [1] of 6%. The substance further returned a fold staining efficiency (1/EC50) against anti FMC63 antibody in experiment [2] of 8 fold. Further, the percent of CAR-expressing cells detected in [3] is over 90%. This substance gave a percent of target cells detected at the maximum concentration in experiment [4] of over 92%. The substance also returned a percent of CD19 CAR-expressing cells detected at saturated concentrations in experiment [5] of 93%. This substance also showed an efficiency of detection against antigen-monomer in experiment [6] of 25 % higher. The substance further showed a percent of CAR+ cells retained in the column in experiment [7] of 35%. For the same substance, the percent of CAR+ cells retained in the column in experiment [8] came out at 55%. The sensitivity in experiment [9] is over 90%.

“Protein L (Thermo Fisher Scientific, 29997)” had a percent of cells detected in experiment [10] of 90%.

The record behind these values is patent publication US20240361328A1.
